Source: article doi:10.1101/2024.04.26.591398

Molecular target: T1, FITC-casein
T1 sequence (P02666 16-224, species assumed, looked up): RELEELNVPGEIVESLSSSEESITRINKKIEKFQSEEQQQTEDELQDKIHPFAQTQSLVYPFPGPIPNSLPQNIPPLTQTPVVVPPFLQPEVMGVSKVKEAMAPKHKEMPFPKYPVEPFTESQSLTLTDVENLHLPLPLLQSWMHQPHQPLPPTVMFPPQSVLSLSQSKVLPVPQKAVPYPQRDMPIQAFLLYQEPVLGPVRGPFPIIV
Assay: fluorescence polarisation

Hsp104, sequence (P31539 whole entry): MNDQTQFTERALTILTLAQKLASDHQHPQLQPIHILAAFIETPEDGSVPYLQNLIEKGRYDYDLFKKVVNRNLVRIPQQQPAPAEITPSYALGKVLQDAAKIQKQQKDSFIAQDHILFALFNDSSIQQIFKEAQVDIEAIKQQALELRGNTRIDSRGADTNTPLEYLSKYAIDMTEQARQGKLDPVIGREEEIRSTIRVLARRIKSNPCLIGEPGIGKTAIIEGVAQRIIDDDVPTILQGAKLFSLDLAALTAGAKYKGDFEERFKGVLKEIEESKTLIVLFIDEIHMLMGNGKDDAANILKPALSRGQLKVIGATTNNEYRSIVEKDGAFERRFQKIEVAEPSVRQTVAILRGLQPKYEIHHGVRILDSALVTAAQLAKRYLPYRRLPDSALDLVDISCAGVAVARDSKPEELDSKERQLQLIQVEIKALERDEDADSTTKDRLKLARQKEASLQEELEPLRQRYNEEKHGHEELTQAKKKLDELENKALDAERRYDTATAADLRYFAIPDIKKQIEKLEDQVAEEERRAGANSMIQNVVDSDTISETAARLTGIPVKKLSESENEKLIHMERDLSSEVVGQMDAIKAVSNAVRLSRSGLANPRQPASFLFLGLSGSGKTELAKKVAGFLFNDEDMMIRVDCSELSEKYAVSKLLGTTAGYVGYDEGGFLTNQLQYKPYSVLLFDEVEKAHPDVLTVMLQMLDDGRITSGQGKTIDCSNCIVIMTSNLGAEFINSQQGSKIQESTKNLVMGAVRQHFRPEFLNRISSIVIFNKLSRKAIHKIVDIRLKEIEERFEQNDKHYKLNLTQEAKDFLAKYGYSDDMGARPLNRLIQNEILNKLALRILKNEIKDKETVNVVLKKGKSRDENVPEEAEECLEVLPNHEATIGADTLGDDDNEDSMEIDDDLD
Ydj1, sequence (P25491 whole entry): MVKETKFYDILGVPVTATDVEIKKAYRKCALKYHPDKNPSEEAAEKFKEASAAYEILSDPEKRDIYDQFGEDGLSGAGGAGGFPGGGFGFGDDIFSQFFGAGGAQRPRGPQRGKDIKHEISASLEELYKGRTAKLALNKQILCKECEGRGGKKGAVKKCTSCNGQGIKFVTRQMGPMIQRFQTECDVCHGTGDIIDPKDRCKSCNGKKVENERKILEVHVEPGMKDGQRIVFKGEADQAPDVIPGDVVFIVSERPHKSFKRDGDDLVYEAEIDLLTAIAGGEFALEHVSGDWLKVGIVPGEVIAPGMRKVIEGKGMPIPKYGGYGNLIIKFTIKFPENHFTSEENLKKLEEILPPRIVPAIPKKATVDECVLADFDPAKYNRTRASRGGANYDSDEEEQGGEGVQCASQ

IC50 [µM] | Kd [µM] | Substance
20 to 40 |  | Ydj1 (from UniProt P25491 1-409) (natural protein)
 | 0.2 | Hsp104 (from UniProt P31539 1-908) (natural protein)
